Measured values reported in US20170112792A1 (BETH ISRAEL DEACONESS MEDICAL CENTER, published 2017).
Changes are numbered by the printed parent chain.

T1: IRAKM, overexpressed, from IL-33-treated cells (UniProt Q9Y616 1-596, phosphoserine at 110 (LC-MS/MS of the GST-Pin1-bound protein))
T1 construct: also called WT IRAKM
T1 sequence (looked up): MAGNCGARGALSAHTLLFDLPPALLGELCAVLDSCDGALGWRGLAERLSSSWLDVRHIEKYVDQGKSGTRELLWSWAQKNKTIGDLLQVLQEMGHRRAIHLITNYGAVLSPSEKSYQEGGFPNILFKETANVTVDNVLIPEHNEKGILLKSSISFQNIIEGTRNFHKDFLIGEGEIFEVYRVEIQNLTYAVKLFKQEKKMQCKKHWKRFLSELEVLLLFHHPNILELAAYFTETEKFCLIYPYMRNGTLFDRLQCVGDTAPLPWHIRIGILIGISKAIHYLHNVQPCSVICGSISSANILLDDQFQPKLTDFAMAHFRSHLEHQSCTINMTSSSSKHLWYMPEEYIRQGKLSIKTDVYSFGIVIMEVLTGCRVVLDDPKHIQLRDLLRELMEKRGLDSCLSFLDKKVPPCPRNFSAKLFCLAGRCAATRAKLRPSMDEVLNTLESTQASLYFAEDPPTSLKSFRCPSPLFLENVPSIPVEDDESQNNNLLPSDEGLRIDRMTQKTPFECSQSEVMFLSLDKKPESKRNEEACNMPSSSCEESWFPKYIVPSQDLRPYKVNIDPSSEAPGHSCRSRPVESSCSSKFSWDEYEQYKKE

T2: myc-MKP3 (UniProt Q16828 1-381)
T2 construct: also called MAP kinase phosphatase 3; not shown: myc tag
T2 sequence (looked up): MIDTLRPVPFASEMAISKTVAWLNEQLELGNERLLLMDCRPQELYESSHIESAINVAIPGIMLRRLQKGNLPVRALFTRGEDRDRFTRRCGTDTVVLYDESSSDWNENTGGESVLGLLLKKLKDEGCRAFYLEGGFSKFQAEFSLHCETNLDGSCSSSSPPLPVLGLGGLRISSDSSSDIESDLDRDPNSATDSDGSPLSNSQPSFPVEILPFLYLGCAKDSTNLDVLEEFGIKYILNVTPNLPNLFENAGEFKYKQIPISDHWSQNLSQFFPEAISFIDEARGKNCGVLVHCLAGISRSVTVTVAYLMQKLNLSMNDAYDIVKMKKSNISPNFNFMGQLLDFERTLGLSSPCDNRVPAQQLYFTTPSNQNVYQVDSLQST

T3: IRAKM S110E peptide (IRAKM residues 103-124 with the S110E substitution)
T3 construct: Synthetic peptide; also called IRAKM Ser110E
T3 peptide: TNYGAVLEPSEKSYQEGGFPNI

T4: IRAKM P111A (UniProt Q9Y616 1-596)
T4 construct: also called P111A mutant; P111 mutation
T4 sequence (looked up): T1 sequence (looked up) with P111A

B1: GFP-PPlase (other)
chain: GKNGQGEPARVRCSHLLVKHSQSRRPSSWRQEKITRTKEEALELINGYIQKIKSGEEDFESLASQFSDCSSAKARGDLGAFSRGQMQKPFEDASFALRTGEMSGPVFTDSGIHIILRTE
notes: also called GFP fused the Pin1 peptidyl-prolyl cis-trans isomerase (PPlase) domain; GFP-PPlase domain; not shown: GFP
B2: Erk1 (enzyme, human, UniProt P27361 1-379, looked up)
chain: MAAAAAQGGGGGEPRRTEGVGPGVPGEVEMVKGQPFDVGPRYTQLQYIGEGAYGMVSSAYDHVRKTRVAIKKISPFEHQTYCQRTLREIQILLRFRHENVIGIRDILRASTLEAMRDVYIVQDLMETDLYKLLKSQQLSNDHICYFLYQILRGLKYIHSANVLHRDLKPSNLLINTTCDLKICDFGLARIADPEHDHTGFLTEYVATRWYRAPEIMLNSKGYTKSIDIWSVGCILAEMLSNRPIFPGKHYLDQLNHILGILGSPSQEDLNCIINMKARNYLQSLPSKTKVAWAKLFPKSDSKALDLLDRMLTFNPNKRITVEEALAHPYLEQYYDPTDEPVAEEPFTFAMELDDLPKERLKELIFQETARFQPGVLEAP
notes: entries are written once for Erk1 and once for Erk2; also called Erk1/2 (member Erk1); total Erk1/2
B3: 15N-labeled Pin1 WW domain (Pin1 residues 1-50) (other, UniProt Q13526 1-50, looked up)
chain: MADEEKLPPGWEKRMSRSSGRVYYFNHITNASQWERPSGNSSSGGKNGQG
modifications: uniformly 15N-labeled
notes: range 1-50; also called 15N-Pin1-WW; 15N-Pin1 WW
B4: Pin1, endogenous in DC2.4 cells (enzyme, mouse, UniProt Q9QUR7 1-165, looked up)
chain: MADEEKLPPGWEKRMSRSSGRVYYFNHITNASQWERPSGGSTVGGSSKNGQGEPAKVRCSHLLVKHSQSRRPSSWRQEKITRSKEEALELINGYIQKIKSGEEDFESLASQFSDCSSAKARGDLGPFSRGQMQKPFEDASFALRTGEMSGPVFTDSGIHIILRTE
B5: endogenous Rab2A (HMLE cells) (enzyme, human, UniProt P61019 2-212, looked up)
chain: AYAYLFKYIIIGDTGVGKSCLLLQFTDKRFQPVHDLTIGVEFGARMITIDGKQIKLQIWDTAGQESFRSITRSYYRGAAGALLVYDITRRDTFNHLTTWLEDARQHSNSNMVIMLIGNKSDLESRREVKKEEGEAFAREHGLIFMETSAKTASNVEEAFINTAKEIYEKIQEGVFDINNEANGIKIGPQHAATNATHAGNQGGQQAGGGCC
B6: Flag-Rab2A (enzyme, UniProt P61019 1-212, looked up)
chain: MAYAYLFKYIIIGDTGVGKSCLLLQFTDKRFQPVHDLTIGVEFGARMITIDGKQIKLQIWDTAGQESFRSITRSYYRGAAGALLVYDITRRDTFNHLTTWLEDARQHSNSNMVIMLIGNKSDLESRREVKKEEGEAFAREHGLIFMETSAKTASNVEEAFINTAKEIYEKIQEGVFDINNEANGIKIGPQHAATNATHAGNQGGQQAGGGCC
notes: Expressed in HEK293/293T or HMLE cells; also called Flag-tagged wild-type Rab2A; not shown: Flag tag
B7: GST-Rab2A (wild type) (enzyme, UniProt P61019 1-212, looked up)
chain: B6 chain
notes: also called wild-type GST-Rab2A fusion protein; not shown: GST tag
B8: GST-Rab2A mut1/2 (enzyme, UniProt P61019 1-212, looked up)
chain: B6 chain with K29A, R30A, L37A, I39A
notes: not shown: GST tag

Tests used:
[1] = molecular target: T1, IRAKM, overexpressed, from …; assay: co-IP with anti-GFP antibody from IL-33-treated HEK293 cells co-expressing IRAKM, western blot for IRAKM
myc-MKP3 = molecular target: T2, myc-MKP3; assay: competition co-IP: Flag IP of 293T lysates with a constant dose of Flag-Rab2A (competitor) and falling doses of myc-MKP3, western blot for Erk1/2
[2] = molecular target: T3, IRAKM S110E peptide (IRAKM residues …); assay: NMR titration, 1H-15N HSQC chemical shift changes
IRAKM P111A = molecular target: T4, IRAKM P111A; assay: co-IP with anti-IRAKM antibody from DC2.4 cells stably expressing P111A, western blot for Pin1
Erk2 [3] = molecular target: T5, Erk2 (human, UniProt P28482 1-360); assay: reciprocal co-IP of endogenous proteins from HMLE lysate, western blot; the Erk1/2 strip does not separate Erk1 from Erk2
T5 construct: entries are written once for Erk1 and once for Erk2; also called Erk1/2 (member Erk2); total Erk1/2

Erk1 [4] = molecular target: B2; assay: as above
[5] = molecular target: T6, p-Erk1 (phosphorylated Erk1) (human, UniProt P27361 2-379, phosphorylated (p-Erk1/2, induced by constitutively active MEK1); sites not given); assay: Flag co-IP from HEK293 cells transfected with Flag-Rab2A with or without AcMEK1, western blot
T6 construct: also called p-Erk1/2 (member Erk1)

Erk2 [6] = molecular target: T5, Erk2; assay: as above
Erk1 [7] = molecular target: B2; assay: as above
[8] = molecular target: T7, p-Erk2 (phosphorylated Erk2) (human, UniProt P28482 2-360, phosphorylated (p-Erk1/2, induced by constitutively active MEK1); sites not given); assay: as above
T7 construct: also called p-Erk1/2 (member Erk2)

Erk2 [9] = molecular target: T5, Erk2; assay: GST pull-down of endogenous Erk1/2 from cell lysate, western blot
Erk1 [10] = molecular target: B2; assay: as above

T5 sequence (P28482 whole entry): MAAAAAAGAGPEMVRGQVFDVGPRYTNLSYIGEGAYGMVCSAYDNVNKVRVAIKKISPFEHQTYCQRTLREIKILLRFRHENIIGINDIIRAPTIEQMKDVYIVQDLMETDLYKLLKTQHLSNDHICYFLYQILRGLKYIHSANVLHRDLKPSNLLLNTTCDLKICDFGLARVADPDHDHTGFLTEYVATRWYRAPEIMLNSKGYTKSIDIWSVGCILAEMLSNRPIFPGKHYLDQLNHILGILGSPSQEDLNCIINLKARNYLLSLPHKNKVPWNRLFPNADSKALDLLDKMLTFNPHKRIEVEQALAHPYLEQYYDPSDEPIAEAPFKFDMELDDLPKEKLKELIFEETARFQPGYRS
T7 sequence (P28482 2-360 limits assumed): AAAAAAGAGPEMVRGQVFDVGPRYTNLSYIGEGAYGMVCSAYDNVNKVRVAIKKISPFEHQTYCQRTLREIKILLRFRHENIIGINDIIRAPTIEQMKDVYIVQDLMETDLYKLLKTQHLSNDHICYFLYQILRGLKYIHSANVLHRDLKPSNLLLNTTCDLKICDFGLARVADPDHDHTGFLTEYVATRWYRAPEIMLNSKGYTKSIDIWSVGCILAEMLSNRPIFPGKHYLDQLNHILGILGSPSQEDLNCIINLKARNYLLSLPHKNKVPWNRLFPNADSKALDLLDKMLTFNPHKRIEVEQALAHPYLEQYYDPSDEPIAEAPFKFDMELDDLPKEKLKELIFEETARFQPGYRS

Does B1 bind [1]?
Result: no binding

Does B2 bind (myc-MKP3)?
Result: binds

For B3, which Kd [2] is on record?
The Kd was 1510 µM.

Does B4 bind (IRAKM P111A)?
Result: no binding

What does the source list for B5?
binding result (Erk2 [3]): binds; binding result (Erk1 [4]): binds

Does B6 bind [5]?
Result: binds

Does B6 bind (Erk2 [6])?
Result: binds

Does B6 bind (Erk1 [7])?
Result: binds

Does B6 bind [8]?
Result: binds

Does B7 bind (Erk2 [9])?
Result: binds

Does B7 bind (Erk1 [10])?
Result: binds

Does B8 bind (Erk2 [9])?
Result: no binding

Does B8 bind (Erk1 [10])?
Result: no binding
